B1: [^3H]-neurotensin [modified: pyroGlu at position 1; [3,11-tyrosyl-3,5-^3H(N)] (tritium on Tyr3 and Tyr11); pyroGlu at position 1; [3,11-tyrosyl-3,5-^3H(N)] (tritium on Tyr3 and Tyr11)] [not stated] / wild-type NTS1 (N-terminally truncated … (parent complex)
chain 1: not shown
chain 2: TSESDTAGPNSDLDVNTDIYSKVLVTAIYLALFVVGTVGNSVTAFTLARKKSLQSLQSTVHYHLGSLALSDLLILLLAMPVELYNFIWVHHPWAFGDAGCRGYYFLRDACTYATALNVASLSVERYLAICHPFKAKTLMSRSRTKKFISAIWLASALLAIPMLFTMGLQNRSGDGTHPGGLVCTPIVDTATVKVVIQVNTFMSFLFPMLVISILNTVIANKLTVMVHQAAEQGRVCTVGTHNGLEHSTFNMTIEPGRVQALRHGVLVLRAVVIAFVVCWLPYHVRRLMFCYISDEQWTTFLFDFYHYFYMLTNALFYVSSAINPILYNLVSANFRQVFLSTLACLCPGWRHRRKKRPTFSRKPNSMSSNHAFSTSATRETLY

This assay covers variants of B1. Put plainly: saturation binding assay on intact E. coli cells; intact E. coli cells.
For the variant chain 2 A44L, chain 2 F316A, the dissociation constant (Kd) was determined as 0.1 nM.

One may read the Kd as the free concentration of one partner at which half of the binding sites on the other are occupied at equilibrium, for simple one-to-one binding.

These data come from publication PMC2696590 (2009).
